T1: IL-18Rα ECD (human)
T1 chain: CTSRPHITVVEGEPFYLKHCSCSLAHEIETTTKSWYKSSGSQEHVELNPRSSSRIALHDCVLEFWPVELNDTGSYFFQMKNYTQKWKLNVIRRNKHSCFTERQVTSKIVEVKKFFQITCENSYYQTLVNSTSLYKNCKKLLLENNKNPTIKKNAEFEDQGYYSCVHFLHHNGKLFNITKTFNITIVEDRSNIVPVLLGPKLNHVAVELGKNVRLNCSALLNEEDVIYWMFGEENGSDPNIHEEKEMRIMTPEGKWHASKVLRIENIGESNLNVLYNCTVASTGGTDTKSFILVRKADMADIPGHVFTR

T2: IL-18Rβ ECD (human)
T2 chain: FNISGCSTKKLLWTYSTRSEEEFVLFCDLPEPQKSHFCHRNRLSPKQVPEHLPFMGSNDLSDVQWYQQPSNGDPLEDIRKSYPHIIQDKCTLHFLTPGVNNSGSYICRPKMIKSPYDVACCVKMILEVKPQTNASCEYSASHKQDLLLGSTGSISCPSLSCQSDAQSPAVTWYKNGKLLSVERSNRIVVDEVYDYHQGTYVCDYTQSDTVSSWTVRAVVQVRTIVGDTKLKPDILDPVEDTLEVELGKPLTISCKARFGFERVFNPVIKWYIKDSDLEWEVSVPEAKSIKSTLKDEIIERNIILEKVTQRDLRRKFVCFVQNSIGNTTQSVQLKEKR

B1: ms_IL18R_VHHβ20 (antibody, V domains shown)
VH: DVQLQESGGGLVQAGGSLRLSCAASVSAFRLKVMGWYRQAPGKEREFVAAIDSGDTKSYTNAVKGRFTISGGAATNTVVLQMNSLKPEDTAFYYCNAVLFGRDYWGQGTQVTVSS
B2: ms_IL18R_VHHβ17 (antibody, V domains shown)
VH: DVPLQESGGGLVQAGGSLRLSCVASGFALDEIAVGWFRQAPGKEREGLSCISSSDGSTLYADSVKGRFTISSDNAKNTVYLQMNSLKPEDTAVYLCAAVRGSCFGRTTHWGQGTQVTVSS
B3: ms_IL18R_VHHβ15 (antibody, V domains shown)
VH: DVQLQESGGGLVQPGGSLRLSCAASGRFFTINAMGWYRQTPGKQRELVAAITSDGSTTYQDSVKGRFTISRDNANRTANLYMNSLKSEDTAVYYCNADGRFNDNGYVKNFNIWGQGTQVTVSS
B4: ms_IL18R_VHHβ19 (antibody, V domains shown)
VH: DVQLQESGGGLVQAGGSLRLSCAASGIRFNPFRMAWYRQAPGKQRELVAAIDSGGSTDYADSVRGRFTISRDNAKITVSLQMNSLKPEDTAVYYCNTQIFARDYWGQGSQVTVSS
B5: ms_IL18R_VHHβ13 (antibody, V domains shown)
VH: DVQLQESGGGLVQPGGSLRLSCAASGISFRVNVLGWYRQAPGKPRELVASISSGDSTNYADSVKGRFTISRDNAKSTVYLQMNNLKPEDTAVYYCNARIFARDNWGQGTQVTVSS
B6: ms_IL18R_VHHβ21 (antibody, V domains shown)
VH: DVQLQESGGGLVQAGGSLRLSCAASGITFSPYVMGWYRQAPGKQRELVADMVNGGSTNYADSVKGRFTIFRDTAANTVTLQMNNLKPDDTAVYYCHIMIFGRASWGQGTQVTVSS
B7: ms_IL18R_VHHβ22 (antibody, V domains shown)
VH: DVPLQESGGGLVQPGGSLRLSCAAPGFALEYYAIGWFRQAPGKEREGLSCVSSSRSGGSTVYADSVKGRFTISRDNAKNTVYLQIDSLKVEDTAVYYCAGAPAYRSHYCRLQADDYTYWGQGTQVTVSS
B8: ms_IL18R_VHHβ12 (antibody, V domains shown)
VH: DVPLQESGGGLVQPGGSLRLSCRASGVGFSIYTMGWYRQAPGEQRHLVATVTTGGHINYGDSVQGRFTISRENNGNVVELQMHSLKPEDTAVYFCNAIYFGQDIWGQGTQVTVSS
B9: ms_IL18R_VHHβ18 (antibody, V domains shown)
VH: DVQLQESGGGLVQAGGSLRLSCAASGRTFSSYAMGWFRQAPGMVREFVAAISWSGGSTYYADSVQGRFTISRDNAKNTVYLQMNSLKPEDTAVYYCAADRSLSGSYFGATIDYWGQGTQVTVSS
B10: ms_IL18R_VHHβ14 (antibody, V domains shown)
VH: DVPLQESGGGLVQAGGSLRLSCAASDRTVSKGAMGWFRQAPGKEREFVATIGRSSGITYYADSVKGRFTISRDNAKNTWYLQMNSLRPEDTAVYYCAADSSGIIRTTSWAYDYWGQGTQVTVSS
B11: ms_IL18R_VHHβ16 (antibody, V domains shown)
VH: DVQLQESGGGSVPAGGSLRLSCSASGFTTDDYIIGWFRQAPGKKREGVSCISTTDGSAWYADSVKGRFTISSDNANNTVTLQMNSLLPEDTSVYYCAEVSTGTGVLYCREEFYFGMDSWGKGTPVTVSS
B12: ms_IL18R_VHHα11 (antibody, V domains shown)
VH: DVPLQESGGGLVQPGQSLRLSCAASGSPIRFSVMGWFQQAPGKGRDLIARITSGGIVYYTDSVKGRFTISKDNAKNTLYLQMNSLNLEDTGVYYCNRLGGALFDWGQGTQVTVSS
B13: ms_IL18R_VHHα6 (antibody, V domains shown)
VH: DVPLQESGGGSVQPGGSLRLSCAASKSIFSINAMRWHRQAPGKQRELVATFTSSGRINYADSVKGRFTISTDNAKNTIYLQMNSLNPEDTAVYRCNVGLWEDGLWYDYWGQGTQVTVSS
B14: ms_IL18R_VHHα8 (antibody, V domains shown)
VH: DVQLQESGGGLVQAGGSLRLSCAASGRTFSNDAMGWFRQAPGKEREFVAAVSWSLGMTYNADSVKGRFTISRDNAKNTVYLQMNSLKPDDTAVYYCAAGPDLSDELYGYDYWGQGTQVTVSS
B15: ms_IL18R_VHHα10 (antibody, V domains shown)
VH: DVQLQESGGGLVQAGGSLRLSCAASGLPFSSYAMGWFRQAPGKDREFVAGITWSGSSIYYRDSVKGRFTISRDNAKNTVWLQMNDLKPEDTAVYYCAAARRRVGLPLADPREYVYWGQGTQVTVSS
B16: ms_IL18R_VHHα9 (antibody, V domains shown)
VH: DVQLQESGGGLVQPGESLRLSCTASRSDFSRYTMGWYRQAPGKWRELVARITSGGIPHYADSVKGRFTISRDNAKNTVTLQMNTLQFEDSAVYYCNTVGVALWAWGQGTLVTVSS
B17: ms_IL18R_VHHα1 (antibody, V domains shown)
VH: DVPLQESGGGLVQTGGSLRLSCAASGFTFNSYAMGWYQQAPGKKYRELVAHIGSGGSTRYIDSVKGRFTISRDNAKNTVYLQMNSLKPEDTAVYYCNVYGATLRSWGQGTQVTVSS
B18: ms_IL18R_VHHα2 (antibody, V domains shown)
VH: DVQLQESGGGLVQAGGSLRLSCAASGFTLLDSYDIGWFRQAPGKKREEVSCISSSGGKSTYYADSVKGRFTISRDNANNTVYLQMNSLKPEDTAVYYCAADGAEGFWSCQSGGYDYWGQGTQVTVSS
B19: ms_IL18R_VHHα5 (antibody, V domains shown)
VH: DVQLQESGGGLVQAGGSLRLSCAASGRTFSNLAMAWFRQAPGKEREFVAAIDWNGDNRLYAASVKGRFTISRDNAKSTMYLQMNSLKPEDTAVYYCAADSTYSTDWYLNPLNRTRYDYWGQGTQVTVSS
B20: ms_IL18R_VHHα7 (antibody, V domains shown)
VH: DVQLQESGGGLVQAGGSLRLSCAASGHTFNNLAMAWCRQAPGKEREFVSAIDWNGDNRLYAYSVKGRFTISRDNAKSTMYLQMNSLKPEDTAVYYCAADSTYSTNWYLDPLNRTTYNYWGQGTPVTVSS
B21: ms_IL18R_VHHα4 (antibody, V domains shown)
VH: DVQLQESGGGLVQAGGSLRLSCAASGFTLGAYAINWFQQAPGKERARAWVLCITSSGGSAYYVDSVKGRFTVSRDNAKNTVYLQMNSLKPEDTAFYYCAAGGACAAAETMNYWGKGTLVTVSS
B22: ms_IL18R_VHHα3 (antibody, V domains shown)
VH: DVQLQESGGGLVQAGGSLRLSCAASGFTLGAYAINWFRQAPGKERARAWDACITSSGRSAYYADSVKGRFTVSRDHAKNTVYLQMNSLKPEDTAFYYCAAGAACAAAGTMNYWGKGTLVTVSS
B23: IL18R_VHHα8β17 (antibody, V domains shown)
V domain 1: DVQLQESGGGLVQAGGSLRLSCAASGRTFSNDAMGWFRQAPGKEREFVAAVSWSLGMTYNADSVKGRFTISRDNAKNTVYLQMNSLKPDDTAVYYCAAGPDLSDELYGYDYWGQGTQVTVSS
V domain 2: DVPLQESGGGLVQAGGSLRLSCVASGFALDEIAVGWFRQAPGKEREGLSCISSSDGSTLYADSVKGRFTISSDNAKNTVYLQMNSLKPEDTAVYLCAAVRGSCFGRTTHWGQGTQVTVSS
B24: IL18R_VHHα8β15 (antibody, V domains shown)
V domain 1: DVQLQESGGGLVQAGGSLRLSCAASGRTFSNDAMGWFRQAPGKEREFVAAVSWSLGMTYNADSVKGRFTISRDNAKNTVYLQMNSLKPDDTAVYYCAAGPDLSDELYGYDYWGQGTQVTVSS
V domain 2: DVQLQESGGGLVQPGGSLRLSCAASGRFFTINAMGWYRQTPGKQRELVAAITSDGSTTYQDSVKGRFTISRDNANRTANLYMNSLKSEDTAVYYCNADGRFNDNGYVKNFNIWGQGTQVTVSS
B25: IL18R_tanVHHα2β15 (antibody, V domains shown)
V domain 1: DVQLQESGGGLVQAGGSLRLSCAASGFTLLDSYDIGWFRQAPGKKREEVSCISSSGGKSTYYADSVKGRFTISRDNANNTVYLQMNSLKPEDTAVYYCAADGAEGFWSCQSGGYDYWGQGTQVTVSS
V domain 2: DVQLQESGGGLVQPGGSLRLSCAASGRFFTINAMGWYRQTPGKQRELVAAITSDGSTTYQDSVKGRFTISRDNANRTANLYMNSLKSEDTAVYYCNADGRFNDNGYVKNFNIWGQGTQVTVSS

Biological target: T1, IL-18Rα ECD
Assay: BLI

Binding result, no binding:
B1, B2, B3, B4, B5, B6, B7, B8, B9, B10, B11

Biological target: T2, IL-18Rβ ECD
Assay: BLI

Binding result, no binding:
B12, B13, B14, B15, B16, B17, B4, B18, B19, B20, B21, B22

biological target: IL-18BP (human); assay: BLI

Binding result, no binding:
B23, B24, B25

— patent US20260347486 (published 2026)
